Data as given in PMC7378325.

Molecular target: GFP-GABAB1b
Test: FRET or BRET; two-photon FLIM; GFP donor, t-dimer DsRed acceptor; transfected rat spinal neurons in culture, fixed; treated with baclofen (10^-9 to 10^-3 M) or GABA (10^-4 M), with exogenous fibulin-2 protein (25 or 50 nM), co-transfected fibulin-2 or anti-fibulin-2 siRNA; mean FRET efficiency ± …

B1: DsRed-GABAB2 (receptor)
chain: WTRGAPRPPPSSPPLSIMGLMPLTKEVAKGSIGRGVLPAVELAIEQIRNESLLRPYFLDLRLYDTECDNAKGLKAFYDAIKYGPNHLMVFGGVCPSVTSIIAESLQGWNLVQLSFAATTPVLADKKKYPYFFRTVPSDNAVNPAILKLLKHFRWRRVGTLTQDVQRFSEVRNDLTGVLYGEDIEISDTESFSNDPCTSVKKLKGNDVRIILGQFDQNMAAKVFCCAFEESMFGSKYQWIIPGWYEPAWWEQVHVEANSSRCLRRSLLAAMEGYIGVDFEPLSSKQIKTISGKTPQQFEREYNSKRSGVGPSKFHGYAYDGIWVIAKTLQRAMETLHASSRHQRIQDFNYTDHTLGKIILNAMNETNFFGVTGQVVFRNGERMGTIKFTQFQDSREVKVGEYNAVADTLEIINDTIRFQGSEPPKDKTIILEQLRKISLPLYSILSALTILGMIMASAFLFFNIKNRNQKLIKMSSPYMNNLIILGGMLSYASIFLFGLDGSFVSEKTFETLCTVRTWILTVGYTTAFGAMFAKTWRVHAIFKNVKMKKKIIKDQKLLVIVGGMLLIDLCILICWQAVDPLRRTVERYSMEPDPAGRDISIRPLLEHCENTHMTIWLGIVYAYKGLLMLFGCFLAWETRNVSIPALNDSKYIGMSVYNVGIMCIIGAAVSFLTRDQPNVQFCIVALVIIFCSTITLCLVFVPKLITLRTNPDAATQNRRFQFTQNQKKEDSKTSTSVTSVNQASTSRLEGLQSENHRLRMKITELDKDLEEVTMQLQDTPEKTTYIKQNHYQELNDILSLGNFTESTDGGKAILKNHLDQNPQLQWNTTEPSRTCKDPIEDINSPEHIQRRLSLQLPILHHAYLPSIGGVDASCVSPCVSPTASPRHRHVPPSFRVMVSGL
FRET efficiency (baclofen 10^-6 M): 51.2%
FRET efficiency (baclofen 10^-6 M, fibulin-2 co-transfected): 53%
